B1: TPR t1 (parent)
chain: GACCAAUCUGCCCUCAGAGCUCGAGAACAUCUUCGGAUGCAGAGGAGGCAGGCUUCGGUGGCGCGAUAGCGCCAACGUCCUCAACCUCCAAUGCAUCCCACCACAUGAUGAUGCCUGAAGAGCCUUGGUUUUUUG

Variants of: B1
Assay: polymerase ribozyme fitness, log enrichment relative to wild type (log ratio); higher = more active; in vitro selection for triplet polymerase activity
Method in brief: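 A single round of triplicate in vitro selection, including frozen incubation at −7 °C, was applied to PCR-built, transcribed mutant libraries of each subunit of a heterodimeric triplet polymerase ribozyme. Illumina sequencing of input and output libraries retained genotypes with ≥10 input reads and ≥1 read per output. Fitness is the base-2 logarithm of genotype enrichment divided by wild-type enrichment, from inverse-variance-weighted replicate averages.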

Variant	polymerase ribozyme fitness (log ratio)
A29C G52C C114U	-4.25
C28U G120A	-1.19
A27U U54A A75U U78C G127C	-6.04
U30A A41C G113A C124A	-5.47
C31U C73A A95C	-5.67
C31A U32C C123G	-3.17
A29G G71A U92C U129C	-4.75
C28G G71U	-2.39
C28A C97U G110C	-1.97
C28U C40U G51C C76A	-6.21
C28U C72G U78A	-2.79
A29U A50U U78A G93C	-4.11
C28U A43G G113A	-3.91
C28U U59C G61A C123U	-6.95
A27U U54C U109A G117A A118U U129G	-5.85
C28G C73U	-2.15
C28A G51U G60C C80U G110U G117A	-2.3
A27U U78C U81A C94U	-4.92
C28U A50U C123U	-3.55
A27U U96C C124G	-1.73
A29G A46G	-1.09

Variant	polymerase ribozyme fitness (log ratio)
A29G U32C U106A	-2.24
U30C C49A C62A C115A	-4.4
A29U G48C C82G A118U	-2.03
C28U C56A	-1.65
A27U G63C G71A C82G G113A U129A	-5.8
A27U G127A	-4.51
C28U A41C G57C	-2.88
A27U C40G U132A	-5.01
C31G G35C A43G G110C	-7.68
C31A G63U C88G A121U	-6.64
A27U G135U	-4.15
A27U G44C G47C U112A	-3.34
C28A C70U	-4.86
C28G G48A C72U	-3.41
C31G A111U C114U	-6.64
C28G C34U G35U A37U A95C C114U U133G	-6.83
C28A A41U C53G C104G G110A	-6.89
A27U G48U A50U C123U	-2.86
A29G U38G C73G C82U A100G C115G	-7.25
C28U C73G G93C	-3.34
C31U A46C G113U A119G	-5.51

Variant	polymerase ribozyme fitness (log ratio)
U30A G48C G63U C124A	-5.12
A27U G77U U78G A111C	-6.32
C28U A121C	-0.0887
A27U U54C G71U C98A U132C	-6.73
C31U C86U	-4.08
C31G C34G C97A C102A G113A	-6.66
C28G C98U C124U	-3.04
C28G A118G	-2.17
C28G U78C	-2.53
A27U C40A C70A	-6.74
A29G G69U	-0.507
A29C U112A	-2.33
A29G C124U	1.18
A29G C124A	0.584
A27U A83U G128C	-6.05
A29G C53A C70G G110C	-5.69
A29U C76U U78A	-2.22
A27U G44U G69C C89U	-6.05
A29U G61C G110U	-3.06
A29C G71A C88G C123A U131C	-4.27
C28G G77U	-3.74

Variant	polymerase ribozyme fitness (log ratio)
A29U C62U A74C U81C C124A	-1.11
A29C A50U C104A C114G	-8.27
A29U G61U U106G	-1.91
C28G G69U A121C	0.386
C28G U59G U81C G117C	-6.32
C28U A50U C62U A68G U106A G110A C114A	-6.37
C28G G52A C70U C86U C101U G110A U131G	-2.57
C31G C88A G110U C115A	-7.42
C31G A50C U109G U131A	-4.54
C31G G42U C72G C98U G107C C115U	-6.04
C28A A50C C72U G113A	-3.3
C28U A111C	-3.29
C28U A111U	-3.7
C28U A37C C76G	-3.54
U30C A46G A74G G113A	-2.75
U30A G61A C88U	-5.29
A29U U92G U109A C115U U130A	-5.3
A29U C40U C62A A83C	-3.08
A29U U81C C124A	-0.606
A29C A37C C53A G110U	-5.11
A29U C53U C79U A111C G120C	-3.26
